{
  "source": "patent US20250382602",
  "conditions_in_all_cases": "nanopore translocation; background mutations not given",
  "key": {"[1]": {"biological_target": "T1, Dda 1993 C114A C114A (Enterobacteria phage T4) (UniProt P32270)", "T1 sequence": "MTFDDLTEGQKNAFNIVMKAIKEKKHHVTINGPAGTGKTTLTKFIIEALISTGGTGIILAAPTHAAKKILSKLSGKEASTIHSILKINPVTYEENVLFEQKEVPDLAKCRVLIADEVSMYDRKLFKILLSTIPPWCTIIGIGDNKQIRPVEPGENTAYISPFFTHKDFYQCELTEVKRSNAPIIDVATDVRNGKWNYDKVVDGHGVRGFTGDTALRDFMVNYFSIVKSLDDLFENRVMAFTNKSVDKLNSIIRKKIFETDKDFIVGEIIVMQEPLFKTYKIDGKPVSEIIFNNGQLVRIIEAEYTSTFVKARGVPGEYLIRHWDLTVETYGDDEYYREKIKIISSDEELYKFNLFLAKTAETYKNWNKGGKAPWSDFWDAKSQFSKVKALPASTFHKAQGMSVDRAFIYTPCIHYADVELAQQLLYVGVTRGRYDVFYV"}, "[2]": {"biological_target": "T2, Dda 1993 C114G C114G (Enterobacteria phage T4) (UniProt P32270)", "T2 sequence": "T1 sequence with A114G"}, "[3]": {"biological_target": "T3, Dda 1993 C114L C114L (Enterobacteria phage T4) (UniProt P32270)", "T3 sequence": "T1 sequence with A114L"}, "[4]": {"biological_target": "T4, Dda 1993 C114M C114M (Enterobacteria phage T4) (UniProt P32270)", "T4 sequence": "T1 sequence with A114M"}, "[5]": {"biological_target": "T5, Dda 1993 C114S C114S (Enterobacteria phage T4) (UniProt P32270)", "T5 sequence": "T1 sequence with A114S"}, "[6]": {"biological_target": "T6, Dda 1993 C114T C114T (Enterobacteria phage T4) (UniProt P32270)", "T6 sequence": "T1 sequence with A114T"}},
  "note": "Positions count from the first letter of the chain named.",
  "data": [
    {"substance": "barcoded 3.6 kb DNA analyte ligated to sequencing Y adaptor", "values": [
      {"measurement": "activity (bps speed delta vs control)", "setting": "[1]", "value": 13.8},
      {"measurement": "activity (bps speed delta vs control)", "setting": "[2]", "value": -11.3},
      {"measurement": "activity (bps speed delta vs control)", "setting": "[3]", "value": -42},
      {"measurement": "activity (bps speed delta vs control)", "setting": "[4]", "value": 81.8},
      {"measurement": "activity (bps speed delta vs control)", "setting": "[5]", "value": -7.28},
      {"measurement": "activity (bps speed delta vs control)", "setting": "[6]", "value": -35.7}
    ]}
  ]
}
